Substitutions are numbered along the chain they refer to.

This note sets out measurements from patent publication US20210371867A1 (SYSMEX, published 2021).

The chains are these.
T1: human CD80/B7-1 protein (His tag) (human, UniProt P33681 35-242)
T1 construct: Recombinant His-tagged protein used as the antigen solution; also called antigen
T1 sequence (looked up): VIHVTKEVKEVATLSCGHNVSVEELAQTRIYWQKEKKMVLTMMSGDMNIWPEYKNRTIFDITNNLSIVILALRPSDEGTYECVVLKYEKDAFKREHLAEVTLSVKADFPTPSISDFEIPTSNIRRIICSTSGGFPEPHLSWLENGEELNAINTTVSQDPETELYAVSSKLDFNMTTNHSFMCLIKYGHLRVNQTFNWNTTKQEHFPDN

B1: ALP fusion antibody of Example 2 (GS3): Fab of mouse anti-human IgG antibody, Fd-GS3-BIAPII (Fab, part only; not given: Fd and light chain of anti-IgG Fab, part only)
heavy, part: GGGGSGGGGSGGGGSLIPAEEENPAFWNRQAAQALDVAKKLQPIQTAAKNVILFLGDGMGVPTVTATRILKGQMNGKLGPETPLAMDQFPYVALSKTYNVDRQVPDSAGTATAYLCGVKGNYRTIGVSAAARYNQCNTTRGNEVTSVINRAKKAGKAVGVVTTTRVQHASPAGAYAHTVNRNWYSDADLPADAQKNGCQDIAAQLVYNMDIDVILGGGRMYMFPEGTPDPEYPDDASVNGVRKDKQNLVQEWQAKHQGAQYVWNRTALLQAADDSSVTHLMGLFEPADMKYNVQQDHTKDPTLAEMTEAALQVLSRNPRGFYLFVEGGRIDHGHHDGKAYMALTEAIMFDNAIAKANELTSELDTLILVTADHSHVFSFGGYTLRGTSIFGLAPGKALDSKSYTSILYGNGPGYALGGGSRPDVNGSTSEEPSYRQQAAVPLASETHGGEDVAVFARGPQAHLVHGVQEETFVAHIMAFAGCVEPYTDCNLPAPA
B2: ALP fusion antibody of Example 2 (GS1): Fab of mouse anti-human IgG antibody, Fd-GS1-BIAPII (Fab, part only; not given: Fd and light chain of anti-IgG Fab, part only)
heavy, part: GGGGSLIPAEEENPAFWNRQAAQALDVAKKLQPIQTAAKNVILFLGDGMGVPTVTATRILKGQMNGKLGPETPLAMDQFPYVALSKTYNVDRQVPDSAGTATAYLCGVKGNYRTIGVSAAARYNQCNTTRGNEVTSVINRAKKAGKAVGVVTTTRVQHASPAGAYAHTVNRNWYSDADLPADAQKNGCQDIAAQLVYNMDIDVILGGGRMYMFPEGTPDPEYPDDASVNGVRKDKQNLVQEWQAKHQGAQYVWNRTALLQAADDSSVTHLMGLFEPADMKYNVQQDHTKDPTLAEMTEAALQVLSRNPRGFYLFVEGGRIDHGHHDGKAYMALTEAIMFDNAIAKANELTSELDTLILVTADHSHVFSFGGYTLRGTSIFGLAPGKALDSKSYTSILYGNGPGYALGGGSRPDVNGSTSEEPSYRQQAAVPLASETHGGEDVAVFARGPQAHLVHGVQEETFVAHIMAFAGCVEPYTDCNLPAPA
B3: ALP fusion antibody of Example 1 (GS1 linker): Fab of rabbit anti-CD80 antibody, Fd-GS1-BIAPII (Fab)
heavy: QSVEESGGRLVTPGTPLTLTCTASGFSLSNNAVSWVRQAPGEGLEWIGTISSNDNTYYATWAKGRFTISKTSTTVDLKITSPTTEDTATYFCAIYYYGYGYVFNLWGPGTLVTVSSGQPKAPSVFPLAPCCGDTPSSTVTLGCLVKGYLPEPVTVTWNSGTLTNGVRTFPSVRQSSGLYSLSSVVSVTSSSQPVTCNVAHPATNTKVDKTVAPSTCSKPTGGGGSLIPAEEENPAFWNRQAAQALDVAKKLQPIQTAAKNVILFLGDGMGVPTVTATRILKGQMNGKLGPETPLAMDQFPYVALSKTYNVDRQVPDSAGTATAYLCGVKGNYRTIGVSAAARYNQCNTTRGNEVTSVINRAKKAGKAVGVVTTTRVQHASPAGAYAHTVNRNWYSDADLPADAQKNGCQDIAAQLVYNMDIDVILGGGRMYMFPEGTPDPEYPDDASVNGVRKDKQNLVQEWQAKHQGAQYVWNRTALLQAADDSSVTHLMGLFEPADMKYNVQQDHTKDPTLAEMTEAALQVLSRNPRGFYLFVEGGRIDHGHHDGKAYMALTEAIMFDNAIAKANELTSELDTLILVTADHSHVFSFGGYTLRGTSIFGLAPGKALDSKSYTSILYGNGPGYALGGGSRPDVNGSTSEEPSYRQQAAVPLASETHGGEDVAVFARGPQAHLVHGVQEETFVAHIMAFAGCVEPYTDCNLPAPA
light: ELVMTQTPASVSEPVGGTVTINCQASEDIYSSLAWYQQKPGQRPKLLMYYASTLASGVPSRFKGSGSGTEFTLTISDLECADAATYYCQSYYLSSSSRYGNAFGGGTEVVVKGDPVAPTVLIFPPAADQVATGTVTIVCVANKYFPDVTVTWEVDGTTQTTGIENSKTPQNSADCTYNLSSTLTLTSTQYNSHKEYTCKVTQGTTSVVQSFIG
notes: Fab-enzyme fusion; two ALP fusion Fab molecules form a complex by dimer formation of the ALP subunits; also called Fab-GS1-BIAPII; ALP fusion antibody (GS1 linker)
B4: ALP fusion antibody of Example 1 (EK3 linker): Fab of rabbit anti-CD80 antibody, Fd-EK3-BIAPII (Fab)
heavy: QSVEESGGRLVTPGTPLTLTCTASGFSLSNNAVSWVRQAPGEGLEWIGTISSNDNTYYATWAKGRFTISKTSTTVDLKITSPTTEDTATYFCAIYYYGYGYVFNLWGPGTLVTVSSGQPKAPSVFPLAPCCGDTPSSTVTLGCLVKGYLPEPVTVTWNSGTLTNGVRTFPSVRQSSGLYSLSSVVSVTSSSQPVTCNVAHPATNTKVDKTVAPSTCSKPTEAAAKEAAAKEAAAKLIPAEEENPAFWNRQAAQALDVAKKLQPIQTAAKNVILFLGDGMGVPTVTATRILKGQMNGKLGPETPLAMDQFPYVALSKTYNVDRQVPDSAGTATAYLCGVKGNYRTIGVSAAARYNQCNTTRGNEVTSVINRAKKAGKAVGVVTTTRVQHASPAGAYAHTVNRNWYSDADLPADAQKNGCQDIAAQLVYNMDIDVILGGGRMYMFPEGTPDPEYPDDASVNGVRKDKQNLVQEWQAKHQGAQYVWNRTALLQAADDSSVTHLMGLFEPADMKYNVQQDHTKDPTLAEMTEAALQVLSRNPRGFYLFVEGGRIDHGHHDGKAYMALTEAIMFDNAIAKANELTSELDTLILVTADHSHVFSFGGYTLRGTSIFGLAPGKALDSKSYTSILYGNGPGYALGGGSRPDVNGSTSEEPSYRQQAAVPLASETHGGEDVAVFARGPQAHLVHGVQEETFVAHIMAFAGCVEPYTDCNLPAPA
light: B3 light
notes: Fab-enzyme fusion, dimer through the ALP subunits
B5: ALP fusion antibody of Example 1 (GS3 linker): Fab of rabbit anti-CD80 antibody, Fd-GS3-BIAPII (Fab)
heavy: QSVEESGGRLVTPGTPLTLTCTASGFSLSNNAVSWVRQAPGEGLEWIGTISSNDNTYYATWAKGRFTISKTSTTVDLKITSPTTEDTATYFCAIYYYGYGYVFNLWGPGTLVTVSSGQPKAPSVFPLAPCCGDTPSSTVTLGCLVKGYLPEPVTVTWNSGTLTNGVRTFPSVRQSSGLYSLSSVVSVTSSSQPVTCNVAHPATNTKVDKTVAPSTCSKPTGGGGSGGGGSGGGGSLIPAEEENPAFWNRQAAQALDVAKKLQPIQTAAKNVILFLGDGMGVPTVTATRILKGQMNGKLGPETPLAMDQFPYVALSKTYNVDRQVPDSAGTATAYLCGVKGNYRTIGVSAAARYNQCNTTRGNEVTSVINRAKKAGKAVGVVTTTRVQHASPAGAYAHTVNRNWYSDADLPADAQKNGCQDIAAQLVYNMDIDVILGGGRMYMFPEGTPDPEYPDDASVNGVRKDKQNLVQEWQAKHQGAQYVWNRTALLQAADDSSVTHLMGLFEPADMKYNVQQDHTKDPTLAEMTEAALQVLSRNPRGFYLFVEGGRIDHGHHDGKAYMALTEAIMFDNAIAKANELTSELDTLILVTADHSHVFSFGGYTLRGTSIFGLAPGKALDSKSYTSILYGNGPGYALGGGSRPDVNGSTSEEPSYRQQAAVPLASETHGGEDVAVFARGPQAHLVHGVQEETFVAHIMAFAGCVEPYTDCNLPAPA
light: B3 light
notes: as for B4
B6: ALP fusion antibody of Example 1 (GS2 linker): Fab of rabbit anti-CD80 antibody, Fd-GS2-BIAPII (Fab)
heavy: QSVEESGGRLVTPGTPLTLTCTASGFSLSNNAVSWVRQAPGEGLEWIGTISSNDNTYYATWAKGRFTISKTSTTVDLKITSPTTEDTATYFCAIYYYGYGYVFNLWGPGTLVTVSSGQPKAPSVFPLAPCCGDTPSSTVTLGCLVKGYLPEPVTVTWNSGTLTNGVRTFPSVRQSSGLYSLSSVVSVTSSSQPVTCNVAHPATNTKVDKTVAPSTCSKPTGGGGSGGGGSLIPAEEENPAFWNRQAAQALDVAKKLQPIQTAAKNVILFLGDGMGVPTVTATRILKGQMNGKLGPETPLAMDQFPYVALSKTYNVDRQVPDSAGTATAYLCGVKGNYRTIGVSAAARYNQCNTTRGNEVTSVINRAKKAGKAVGVVTTTRVQHASPAGAYAHTVNRNWYSDADLPADAQKNGCQDIAAQLVYNMDIDVILGGGRMYMFPEGTPDPEYPDDASVNGVRKDKQNLVQEWQAKHQGAQYVWNRTALLQAADDSSVTHLMGLFEPADMKYNVQQDHTKDPTLAEMTEAALQVLSRNPRGFYLFVEGGRIDHGHHDGKAYMALTEAIMFDNAIAKANELTSELDTLILVTADHSHVFSFGGYTLRGTSIFGLAPGKALDSKSYTSILYGNGPGYALGGGSRPDVNGSTSEEPSYRQQAAVPLASETHGGEDVAVFARGPQAHLVHGVQEETFVAHIMAFAGCVEPYTDCNLPAPA
light: B3 light
notes: as for B4
B7: ALP fusion antibody of Example 1 (EK1 linker): Fab of rabbit anti-CD80 antibody, Fd-EK1-BIAPII (Fab)
heavy: B3 heavy with G221E, G222A, G223A, G224A, S225K
light: B3 light
notes: as for B4
B8: ALP fusion antibody of Example 1 (EK2 linker): Fab of rabbit anti-CD80 antibody, Fd-EK2-BIAPII (Fab)
heavy: B6 heavy with G221E, G222A, G223A, G224A, S225K, G226E, G227A, G228A, G229A, S230K
light: B3 light
notes: as for B4

The target in the first test is human IgG antibody (human). Nature of the test: sandwich chemiluminescence immunoassay on magnetic particles (HISCL-800); capture biotin-labeled mouse anti-human IgG semi-IgG; binder as detection antibody, 0.051 U/mL.
As to B1, the Counts (PC, R3 reagent stored at 4° C.) stood at 364000 counts. Molecule B2 displayed a Counts (PC, R3 reagent stored at 4° C.) of 359000 counts.

In a further test the target is human IgG antibody (human). Nature of the test: sandwich chemiluminescence immunoassay (HISCL-800); PC counts over NC counts, R3 reagent stored at 4° C.
The molecule B1 showed a S/N of 737.

Molecule B2 showed a S/N of 737.

Another test addresses T1, human CD80/B7-1 protein (His tag). Nature of the test: sandwich chemiluminescence ELISA; capture rabbit anti-CD80 IgG on plate, antigen 0.005-20 ng/mL, binder as detection antibody at 200 ng/mL. As for the experimental part: Rabbit anti-CD80 antibody (IgG) was diluted with PBS to 1 μg/mL. The resulting antibody solution was added to a 96-well black plate at 100 μL/well and allowed to stand overnight at 4° C. to immobilize the antibody in the wells. After removing the antibody solution from the plate, Buffer I′ (100 mM HEPES, 1% BSA, 0.05% ProClin (trademark), 1 mM MgCl₂, 0.1 mM ZnCl₂, pH 8.0) was added at 300 μL/well and allowed to stand overnight at 4° C. for blocking. After removing the solution from the plate, a human CD80/B7-1 protein (His tag) solution (0.005, 0.020, 0.078, 0.313, 1.25, 5.0 or 20 ng/mL) was added as an antigen solution at 100 μL/well. The plate was shaken at room temperature at 500 rpm for 1 hour to perform an antigen-antibody reaction. The plate was washed three times with a HISCL washing solution (Sysmex Corporation), and then each ALP fusion antibody (200 ng/mL) of Example 1 diluted with Buffer I′ was added at 100 μL/well. The plate was shaken at room temperature at 500 rpm for 1 hour to perform an antigen-antibody reaction. After washing the plate with a HISCL washing solution three times, a HISCL R5 reagent (Sysmex Corporation) as a solution of a chemiluminescent substrate of ALP was added at 100 μL/well, and luminescence intensity was immediately measured with FLUOstar OPTIMA (BMG LABTECH).
For the molecule B3, the binding result is on record as “binds”. Same read-out and setting: to B4 belongs “binds”; to B5, “binds”; to B6, “binds”. Regarding B7, the binding result is “binds”.

For B8, the binding result is “binds”.

For the next test, the target named is human IgG antibody (human). Nature of the test: sandwich chemiluminescence immunoassay (HISCL-800); detection reagent stored at 40° C. for 1 week.
In turn, B1 showed a Counts (PC, R3 reagent stored at 40° C., 1 week) of 331000 counts.

In the case of B2, the Counts (PC, R3 reagent stored at 40° C., 1 week) was determined as 320000 counts.
